{"source": "patent US5795721", "target": "T1, FP505 (ICP4 residues 210-490 DNA-binding/dimerization domain fusion) (Herpes simplex virus 1) (UniProt P08392)", "T1 sequence": "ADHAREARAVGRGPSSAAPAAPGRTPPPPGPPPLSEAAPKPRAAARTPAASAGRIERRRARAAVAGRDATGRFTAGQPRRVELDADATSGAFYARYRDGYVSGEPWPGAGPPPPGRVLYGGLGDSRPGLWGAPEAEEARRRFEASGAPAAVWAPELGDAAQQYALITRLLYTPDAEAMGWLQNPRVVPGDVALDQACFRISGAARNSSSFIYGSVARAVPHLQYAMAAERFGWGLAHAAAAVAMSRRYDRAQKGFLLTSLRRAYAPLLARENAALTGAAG", "experiment": "filter"}
{"substance": "GGGAGACAAGAAUAAACGCUCAANNNNNNNNNNNNNNNNNNNNNNNNNNNNNNNNNNNNNNNNUUCGACAGGAGGCUCACAACAGGC [random RNA pool]", "values": [{"measurement": "Kd", "setting": "random pool", "result": "> 100", "unit": "nM"}]}
{"substance": "GGGAGGACAGTGCGGNNNNNNNNNNNNNNNNNNNNNNNNNNNNNNNNNNNNNNNNCAGTGCGTCAGTCAAC [random ssDNA pool]", "values": [{"measurement": "Kd", "setting": "with tRNA, >11 nM without tRNA", "result": "> 160", "unit": "nM"}]}
{"substance": "ICP0 promoter duplex 200mer", "values": [{"measurement": "Kd", "setting": "without tRNA, >1 uM with tRNA excess", "result": 0.5, "unit": "nM"}]}
